Results published in the supplement of paper PMC10126150.
± gives the standard deviation of the averaged measurements.

Test system: ATP
Test: switch fluorescence ratio, 500 uM ATP over buffer (Cy3 cluster intensity, sum of 5 cycles each) (fold (ratio)); higher = stronger signal-on switching upon ATP binding; sequences stand for … in TCGTCGGCAGCGTCAGATGTGTATAAGAGACAGTTTTTTTTTTTTTTTTTTTTTTTTT…TC
Settings: aptamer strand: ATP DNA aptamer (quencher-CACCTGGGGGAGTATTGCGGAGGAAGG + anchor), 100 nM annealed; ATP concentration: 500 uM
Procedure, shortened: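 Switching-strand clusters labelled with Cy3 on a modified Illumina MiSeq flow-cell were annealed to 100 nM quencher-labelled ATP aptamer, imaged in selection buffer, and re-imaged after 15 min with 500 uM ATP at 22 °C. This was done over five cycles with NaOH stripping and re-annealing in between. The fluorescence ratio is summed target-cycle over summed buffer-cycle Cy3 intensity per cluster, averaged per switch-domain sequence, excluding clusters outside 100-1000 RFU.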
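Also: ATP exposure 15 min at 22 °C before imaging.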

TTGGGACTTC and ATTTTGGGTT are within error of each other in switch fluorescence ratio: 1.03 ± 0.012 for the first, 1 ± 0.022 for the second.

Going from TTTCAGTCTA to GAGAGATTAT, the switch fluorescence ratio falls from 1.03 ± 0.024 to 0.9787 ± 0.002.

Compared with TCCGAGTTGG, TTAATAAATC is lower in switch fluorescence ratio: 1.05 ± 0.023 for the first, 0.996 ± 0.021 for the second.

ATTTTGGCTT and TCTTGCATGT are within error of each other in switch fluorescence ratio: 0.963 ± 0.037 for the first, 1.02 ± 0.028 for the second.

First: TGCCAGAAGG
Second: GGGTCAAAGA
The switch fluorescence ratio of the first is higher: 1.021 ± 0.0041 for the first, 0.9705 ± 0.0086 for the second.

TGTGTGTATG and AACGTGCGTG are within error of each other in switch fluorescence ratio: 0.999 ± 0.036 for the first, 0.9973 ± 0.0028 for the second.

AAACAGATAA and CTAACATTTT are within error of each other in switch fluorescence ratio: 1.04 ± 0.084 for the first, 1.01 ± 0.018 for the second.

CGTCGTATAA and TTGTGCGGGA are within error of each other in switch fluorescence ratio: 1.02 ± 0.021 for the first, 0.999 ± 0.013 for the second.

TTGGCGTTTT and GTGACAGAGG are within error of each other in switch fluorescence ratio: 1.04 ± 0.026 for the first, 1.02 ± 0.0015 for the second.

Going from TGAACTTGAC to TTTGCGGTTT, the switch fluorescence ratio falls from 1.14 ± 0.052 to 1.02 ± 0.046.

CCATCAAATA and TGTTGGGGGG are the same in switch fluorescence ratio: 1.01 ± 0.015 for the first, 1.01 ± 0.057 for the second.

Compared with TTTAGGACGA, TAATCGACTT is higher in switch fluorescence ratio: 0.981 ± 0.017 for the first, 1.02 ± 0.014 for the second.

Going from ACTTATTTTT to CATTGCGATC, the switch fluorescence ratio rises from 1 ± 0.019 to 2.08 ± 0.3.

AGTTGGTATT and GTTAACGATA are within error of each other in switch fluorescence ratio: 0.998 ± 0.015 for the first, 1.03 ± 0.038 for the second.

Compared with GTTTGGGTGT, GACATGTAAA is higher in switch fluorescence ratio: 1 ± 0.016 for the first, 1.048 ± 0.0023 for the second.

Compared with TCCAGGGCGA, GGTACGGGGT is lower in switch fluorescence ratio: 1.16 ± 0.13 for the first, 1 ± 0.028 for the second.

Compared with CGTGCCCGTG, TACTATATGG is higher in switch fluorescence ratio: 1 ± 0.017 for the first, 1.03 ± 0.011 for the second.

Compared with AACTGTATAT, TGGGTTTAGC is lower in switch fluorescence ratio: 1.15 ± 0.019 for the first, 1 ± 0.043 for the second.

TCGGCGAAGG and GGTGTGGCGA are within error of each other in switch fluorescence ratio: 1.01 ± 0.082 for the first, 1.03 ± 0.11 for the second.

CTGGAGGGAC and AAGGGGGCCA are within error of each other in switch fluorescence ratio: 1.06 ± 0.026 for the first, 0.982 ± 0.074 for the second.

CGAGTTGGGG and GTTATTTGGG are within error of each other in switch fluorescence ratio: 1.01 ± 0.031 for the first, 0.979 ± 0.035 for the second.

AGGTTCATCT and GGTACTTTTT are within error of each other in switch fluorescence ratio: 1.011 ± 0.0057 for the first, 1.07 ± 0.14 for the second.

Compared with GGTATTGCTT, AATTAAGAGA is higher in switch fluorescence ratio: 0.995 ± 0.0021 for the first, 1.04 ± 0.017 for the second.

Going from TTCACATACG to GAGAAGGGCA, the switch fluorescence ratio falls from 1.51 ± 0.03 to 1.02 ± 0.05.

GGGGTTACAT and TAGATTGTGT are within error of each other in switch fluorescence ratio: 0.9919 ± 0.0072 for the first, 0.998 ± 0.027 for the second.

GGGGTGCCGG and GGTTTGTAGG are within error of each other in switch fluorescence ratio: 0.977 ± 0.092 for the first, 0.954 ± 0.02 for the second.

Going from AGGTAGGCGT to TCGACCGATT, the switch fluorescence ratio rises from 0.97539 ± 0.00061 to 1.03 ± 0.037.

Going from AGCAACCTTT to GGGGATGCTC, the switch fluorescence ratio falls from 1.16 ± 0.039 to 1.03 ± 0.018.

AAATCGTGCA and AGAGCATTTG are within error of each other in switch fluorescence ratio: 1 ± 0.03 for the first, 1.01 ± 0.058 for the second.

GGGTTTGGCG and CGAAGTTATG are within error of each other in switch fluorescence ratio: 0.999 ± 0.2 for the first, 1.06 ± 0.03 for the second.

ATTCTGAGGC and TCGGTTCAGC are within error of each other in switch fluorescence ratio: 1.03 ± 0.045 for the first, 1.011 ± 0.0024 for the second.

GCGTTTATGG and CTGGTTCGTC are the same in switch fluorescence ratio: 1 ± 0.02 for the first, 1.005 ± 0.0071 for the second.

ACGGTGTTGG and ACGGGGTCTA are within error of each other in switch fluorescence ratio: 1.02 ± 0.021 for the first, 0.993 ± 0.027 for the second.

TTTTTGGTCG and GTGTTTTCCT are within error of each other in switch fluorescence ratio: 0.993 ± 0.086 for the first, 1.04 ± 0.017 for the second.

Going from CCGAGGGAGA to GGATTGCCGA, the switch fluorescence ratio falls from 1.25 ± 0.024 to 1.01 ± 0.043.

GATGTTGATT and TTTGATTTAC are within error of each other in switch fluorescence ratio: 0.997 ± 0.014 for the first, 1 ± 0.028 for the second.

Going from TGAACCGCTA to ATGTAGTACG, the switch fluorescence ratio falls from 1.81 ± 0.16 to 1 ± 0.02.

GAAATGTTGG and TTCGGGAGAG are within error of each other in switch fluorescence ratio: 0.981 ± 0.024 for the first, 0.996 ± 0.071 for the second.

CGGTCCCGGC and AAGCCGTAGG are within error of each other in switch fluorescence ratio: 1.03 ± 0.05 for the first, 0.991 ± 0.044 for the second.

Going from GAGTCCGTAC to GTTCTCCTGA, the switch fluorescence ratio falls from 1.31 ± 0.017 to 1.01 ± 0.014.

TTGCCGCTGT and CGTTTTCCGA are within error of each other in switch fluorescence ratio: 1.18 ± 0.22 for the first, 1.01 ± 0.032 for the second.

GAGAAATGGG and AAGAACTTGC are within error of each other in switch fluorescence ratio: 1.07 ± 0.038 for the first, 0.982 ± 0.053 for the second.

TGTGGCCGGG and TAGGGACGGG are within error of each other in switch fluorescence ratio: 0.998 ± 0.024 for the first, 1.07 ± 0.087 for the second.

First: TCAGACTGTT
Second: AATCAATTAC
The switch fluorescence ratio of the first is lower: 1.01 ± 0.013 for the first, 1.123 ± 0.011 for the second.

Going from ATAAAGTTTC to CAGTGACTGT, the switch fluorescence ratio falls from 1.03 ± 0.015 to 0.98 ± 0.034.

GAGGTTTATA and AAGACTTGTG are within error of each other in switch fluorescence ratio: 0.984 ± 0.043 for the first, 0.981 ± 0.019 for the second.

TTGTGTGGTT and GCTTTCCTTA are within error of each other in switch fluorescence ratio: 0.963 ± 0.038 for the first, 0.991 ± 0.04 for the second.

TACATAGGTT and GGATCGGGGG are within error of each other in switch fluorescence ratio: 1.048 ± 0.006 for the first, 1.03 ± 0.05 for the second.

AACGGCTCTC and AGTGTGGTCT are within error of each other in switch fluorescence ratio: 0.988 ± 0.043 for the first, 1.02 ± 0.045 for the second.

GGTTTGAGAG and CAGTCTTCTT are within error of each other in switch fluorescence ratio: 0.989 ± 0.048 for the first, 1.02 ± 0.026 for the second.

GGGCTCATCA and AATATGAGAT are within error of each other in switch fluorescence ratio: 0.998 ± 0.041 for the first, 0.9799 ± 0.0073 for the second.

Going from TTATAGCACC to TGGATGATGG, the switch fluorescence ratio falls from 1.06 ± 0.021 to 0.961 ± 0.019.

TGGAATTGGT and GGGGTATGGA are within error of each other in switch fluorescence ratio: 1.02 ± 0.032 for the first, 0.989 ± 0.023 for the second.

ATATGTGTGT and GGACTTATTT are within error of each other in switch fluorescence ratio: 0.995 ± 0.018 for the first, 0.986 ± 0.014 for the second.

Compared with TGATAAGTG, AGCTGGGCTC is higher in switch fluorescence ratio: 0.9877 ± 0.0016 for the first, 1.07 ± 0.016 for the second.

AGTTGCTTGT and CATCTACTGG are the same in switch fluorescence ratio: 1.01 ± 0.036 for the first, 1.01 ± 0.018 for the second.

TATGTGTCAG and GAAGAGCCTA are within error of each other in switch fluorescence ratio: 0.977 ± 0.012 for the first, 0.986 ± 0.044 for the second.

TGACCCTTTT and AAATTTGGGT are within error of each other in switch fluorescence ratio: 1 ± 0.077 for the first, 1.01 ± 0.013 for the second.

GAGATAGGGG and TTTGTTAAGG are within error of each other in switch fluorescence ratio: 0.994 ± 0.016 for the first, 1.01 ± 0.019 for the second.

Compared with TCATAGAGTA, ACTGTGGAAT is higher in switch fluorescence ratio: 1.02 ± 0.018 for the first, 1.07 ± 0.022 for the second.

TTTTTGTATC and AATGGTGCCT are within error of each other in switch fluorescence ratio: 0.968 ± 0.022 for the first, 0.996 ± 0.07 for the second.

AAAGTTGGCT and TTATTTCCAC are within error of each other in switch fluorescence ratio: 1.02 ± 0.046 for the first, 0.986 ± 0.013 for the second.

AATTGAGGGC and TAGTATTTTT are within error of each other in switch fluorescence ratio: 1.02 ± 0.035 for the first, 0.977 ± 0.023 for the second.

Compared with CGCCATTACG, ACTAGAGCGA is lower in switch fluorescence ratio: 1.65 ± 0.024 for the first, 1.11 ± 0.11 for the second.

GGGGCCTCGG and AGTGTAATTT are within error of each other in switch fluorescence ratio: 0.997 ± 0.019 for the first, 0.973 ± 0.02 for the second.

TGAGGGGTGA and AGATATGTGT are within error of each other in switch fluorescence ratio: 1.01 ± 0.029 for the first, 0.998 ± 0.013 for the second.

First: TAGGGCGCGG
Second: TATTTTCTTT
The switch fluorescence ratio of the first is lower: 0.9403 ± 0.0034 for the first, 0.982 ± 0.021 for the second.

CGGGAATAAA and CGGGTTCCAC are within error of each other in switch fluorescence ratio: 0.993 ± 0.016 for the first, 1.01 ± 0.05 for the second.

AAAGGGAGGT and ATTGGATCGG are within error of each other in switch fluorescence ratio: 1.03 ± 0.041 for the first, 0.9956 ± 0.0095 for the second.

CACGCGGTGG and CTATGGGGGG are within error of each other in switch fluorescence ratio: 1.02 ± 0.13 for the first, 0.993 ± 0.035 for the second.

Compared with CATTTATATT, ACTGAATCCT is higher in switch fluorescence ratio: 0.986 ± 0.032 for the first, 1.08 ± 0.028 for the second.

AAAAGAACGC and GCTATTGTTG are within error of each other in switch fluorescence ratio: 1.05 ± 0.097 for the first, 1.03 ± 0.021 for the second.

AATAAGGGGG and GTGTCGGGGT are within error of each other in switch fluorescence ratio: 1.01 ± 0.064 for the first, 1.002 ± 0.004 for the second.

CGGGTTTTCG and GAGAGAGGGA are within error of each other in switch fluorescence ratio: 0.988 ± 0.018 for the first, 1.01 ± 0.034 for the second.

TACTTAATGT and CGTAACCTTG are within error of each other in switch fluorescence ratio: 1.032 ± 0.0033 for the first, 1.023 ± 0.0071 for the second.

CTCTGATGGG and TGTCGGATCG are within error of each other in switch fluorescence ratio: 0.986 ± 0.021 for the first, 1 ± 0.013 for the second.

GGTCCATGCT and TTTTTTAATT are within error of each other in switch fluorescence ratio: 0.961 ± 0.032 for the first, 1.03 ± 0.071 for the second.

TAATATAGTT and TAACTTCGTG are the same in switch fluorescence ratio: 1.01 ± 0.027 for the first, 1.01 ± 0.031 for the second.

Sequence AGATGGGGGG has a switch fluorescence ratio of 1.02 ± 0.033.
